Assay results reported in doi:10.1101/2025.02.04.636450.

Key:
[1] = target: circularly permuted AaLS with a Strep II tag in place of the His-tag region (cpAaLS(Strep)) (Aquifex aeolicus)
[2] = target: circularly permuted AaLS with a His-tag in the linker connecting native termini (cpAaLS(His)) (Aquifex aeolicus); test: absorbance ratio at 280/475 nm
[3] = target: wildtype lumazine synthase from Aquifex aeolicus (AaLS-wt) (Aquifex aeolicus) (UniProt O66529); test: absorbance ratio at 280/475 nm

Substance	stoichiometry N [1]	GFP molecules per pentamer (GFP molecules per pentamer) [2]	GFP molecules per pentamer (GFP molecules per pentamer) [3]
circularly permuted AaLS with a Strep II tag in place of the His-tag region (cpAaLS(Strep))	5		
cpAaLS-GFP-SsrA (GFP-SsrA fused to the C-terminus of cpAaLS)		0.14	0.11
